In article PMC11301380, “Non-invasive strategy: Developing a topical IL-4Rα-specific nanobody for the treatment of allergic airway diseases” (Materials Today Bio, 2024):

B1: nanobody H5 (VHH)
VHH: QVQLVESGGGSVQAGGSLRLSCAASGSISSITYLGWFRQAPGKEREGVAALSTSSGTTYYADSVKGRFTVSLDNAKNTVYLQMNSLKPEDTALYYCAAADKGREYTLARAKYWYWGQGTQVTVSA
notes: synthetic nanobody selected from a library on the convex scaffold (pRDV containing Sb-convex, Addgene 132696) with randomised CDR3; also called H5^WT; H5 monomer; source: E. coli BL21 (pSBinit), periplasmic extract, purified (TALON Superflow)
B2: H5^A110Y (VHH)
VHH: QVQLVESGGGSVQAGGSLRLSCAASGSISSITYLGWFRQAPGKEREGVAALSTSSGTTYYADSVKGRFTVSLDNAKNTVYLQMNSLKPEDTALYYCAAADKGREYTLARYKYWYWGQGTQVTVSA
notes: also called H5 mutant A110Y; source: E. coli BL21 (pSBinit), periplasmic extract, purified (TALON Superflow)
B3: H5^E104R (VHH)
VHH: QVQLVESGGGSVQAGGSLRLSCAASGSISSITYLGWFRQAPGKEREGVAALSTSSGTTYYADSVKGRFTVSLDNAKNTVYLQMNSLKPEDTALYYCAAADKGRRYTLARAKYWYWGQGTQVTVSA
notes: also called H5 mutant E104R; source: E. coli BL21 (pSBinit), periplasmic extract, purified (TALON Superflow)

biological target: T1, extracellular domain of human IL-4Rα (human, UniProt P24394, biotin (Biotin-labeled IL-4Rα on the Biacore sensor chip)); experiment: SPR; Biacore T200; biotin-labeled IL-4Rα immobilised on the sensor chip (BR100531); nanobody 15.625-2000 nM; running buffer PBS pH 7.4; 1:1 kinetic binding model; conditions: both partners purified
T1 construct: interleukin-4 receptor alpha, human, extracellular domain; Source and limits of the recombinant protein may stand in the materials list of the supplement; Biotin labelling is told only for the Biacore T200 experiment; also called IL-4 Receptor alpha
T1 sequence (P24394 26-232): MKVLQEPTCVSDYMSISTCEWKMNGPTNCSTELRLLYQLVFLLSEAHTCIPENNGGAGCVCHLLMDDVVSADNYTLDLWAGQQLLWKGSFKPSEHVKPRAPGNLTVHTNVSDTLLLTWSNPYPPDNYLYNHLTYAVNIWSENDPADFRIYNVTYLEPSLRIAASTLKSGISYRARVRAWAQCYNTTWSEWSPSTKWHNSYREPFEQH

Which Kd does the source give for B1 here?
Its Kd is 1420 nM.

B2 was tested. Which Kd did it give?
Its Kd is 708 nM.

For B3, which Kd is on record?
The Kd was 1030 nM.
